EC50, IC50 and IC50, LDL-uptake assay in HepG2 data for 1 substance are collected here from patent publication US20190233542A1.

Test [1] addresses human PCSK9 (Proprotein Convertase Subtilisin/Kexin type 9) (human) (UniProt Q8NBP7). Description: binding ELISA on human PCSK9. (In general: An ELISA detects its analyte on a solid surface through an enzyme-linked reagent.)
For test [2], the target named is human PCSK9-mFc-biotin (human) (UniProt Q8NBP7). Description: competitive ELISA, blocking of PCSK9 binding to LDL-R.
Test [3] has as its target human PCSK9 (Proprotein Convertase Subtilisin/Kexin type 9) (human) (UniProt Q8NBP7). The test can be described thus: cell-based or functional assay.

One may read the EC50 as the midpoint of the concentration-response curve. A higher EC50 goes with a need for much substance. By IC50 is commonly meant the point on the concentration scale where inhibition reaches its midpoint. A higher IC50 goes with weaker potency. In test [1], Repatha (antibody) yielded an EC50 of 0.044 nM. The IC50 in test [2] came to 2.21 nM. This substance also returned an IC50, LDL-uptake assay in HepG2 in test [3] of 77.6 nM.
